Source: PMC5437232, “Structure of human promyeloperoxidase (proMPO) and the role of the propeptide in processing and maturation” (The Journal of Biological Chemistry, 2017)

Target: the molecule itself
Test: SAXS; proteins in solution, 50 mM PBS, pH 7.4; concentrated to 1 mg/liter; 20 °C; SIBYLS beam line 12.3.1; Guinier plots and pair-density distributions compared with the crystal structures

B1: dimeric mature leukocyte myeloperoxidase (complex)
light: not shown
heavy: TGVNCETSCVQQPPCFPLKIPPNDPRIKNQADCIPFFRSCPACPGSNITIRNQINALTSFVDASMVYGSEEPLARNLRNMSNQLGLLAVNQRFQDNGRALLPFDNLHDDPCLLTNRSARIPCFLAGDTRSSEMPELTSMHTLLLREHNRLATELKSLNPRWDGERLYQEARKIVGAMVQIITYRDYLPLVLGPTAMRKYLPTYRSYNDSVDPRIANVFTNAFRYGHTLIQPFMFRLDNRYQPMEPNPRVPLSRVFFASWRVVLEGGIDPILRGLMATPAKLNRQNQIAVDEIRERLFEQVMRIGLDLPALNMQRSRDHGLPGYNAWRRFCGLPQPETVGQLGTVLRNLKLARKLMEQYGTPNNIDIWMGGVSEPLKRKGRVGPLLACIIGTQFRKLRDGDRFWWENEGVFSMQQRQALAQISLPRIICDNTGITTVSKNNIFMSNSYPRDFVNCSTLPALNLASWREAS
modifications: heme covalently bound | glycosylated; heme covalently bound; interchain disulfide Cys-319-Cys-319 between the two H-chains
notes: Myeloperoxidase, human, 14.5-kDa light polypeptide (L-chain) of mature MPO; three N termini found by mass spectrometry: Gly-164, Val-165 and Thr-166; ends before the excised peptide that begins at Ala-273; numbers on the 745-aa primary translation product; Myeloperoxidase, human, 59-kDa heavy polypeptide (H-chain) of mature MPO; three N termini found by mass spectrometry: Thr-277, Gly-278 and …
  stoichiometry N: 2
